What was measured:
Experiment in all cases: cell-based or functional assay
[1] = target: Bacillus subtilis xylanase A mutant N32K (Bacillus subtilis) (UniProt P18429)
[2] = target: Bacillus subtilis xylanase A mutant D11Y (Bacillus subtilis) (UniProt P18429)
[3] = target: Bacillus subtilis xylanase A mutant S31Y (Bacillus subtilis) (UniProt P18429)
[4] = target: Bacillus subtilis xylanase A mutant G34T (Bacillus subtilis) (UniProt P18429)
[5] = target: Bacillus subtilis xylanase A mutant T123K (Bacillus subtilis) (UniProt P18429)
[6] = target: Bacillus subtilis xylanase A mutant N114A (Bacillus subtilis) (UniProt P18429)
[7] = target: Bacillus subtilis xylanase A mutant Q175E (Bacillus subtilis) (UniProt P18429)
[8] = target: Bacillus subtilis xylanase A mutant S31D (Bacillus subtilis) (UniProt P18429)
[9] = target: Bacillus subtilis xylanase A mutant Y113D (Bacillus subtilis) (UniProt P18429)
[10] = target: Bacillus subtilis xylanase A mutant Y113K (Bacillus subtilis) (UniProt P18429)
[11] = target: Bacillus subtilis xylanase A mutant D121K (Bacillus subtilis) (UniProt P18429)
[12] = target: Bacillus subtilis xylanase A mutant G34F (Bacillus subtilis) (UniProt P18429)
[13] = target: Bacillus subtilis xylanase A mutant G120D (Bacillus subtilis) (UniProt P18429)
[14] = target: Bacillus subtilis xylanase A mutant D121F (Bacillus subtilis) (UniProt P18429)
[15] = target: Thermomyces lanuginosus xylanase A mutant D19F (Thermomyces lanuginosus) (UniProt O43097)
[16] = target: Bacillus subtilis xylanase A mutant T124Y (Bacillus subtilis) (UniProt P18429)
[17] = target: Bacillus subtilis xylanase A mutant T123D (Bacillus subtilis) (UniProt P18429)
[18] = target: Bacillus subtilis xylanase A mutant T124D (Bacillus subtilis) (UniProt P18429)
[19] = target: Bacillus subtilis xylanase A mutant T124K (Bacillus subtilis) (UniProt P18429)
[20] = target: Bacillus subtilis xylanase A mutant N29D (Bacillus subtilis) (UniProt P18429)
[21] = target: Bacillus subtilis xylanase A mutant N17K (Bacillus subtilis) (UniProt P18429)
[22] = target: Bacillus subtilis xylanase A mutant Y113A (Bacillus subtilis) (UniProt P18429)
[23] = target: Bacillus subtilis xylanase A mutant Q175L (Bacillus subtilis) (UniProt P18429)
[24] = target: Bacillus subtilis xylanase A mutant D119K (Bacillus subtilis) (UniProt P18429)
[25] = target: Thermomyces lanuginosus wildtype xylanase A (Thermomyces lanuginosus) (UniProt O43097)
[26] = target: Bacillus subtilis xylanase A mutant D11F/G34D (Bacillus subtilis) (UniProt P18429)
[27] = target: Bacillus subtilis xylanase A mutant G13F (Bacillus subtilis) (UniProt P18429)

In the case of wheat endogenous xylanase inhibitor, the Relative inhibition, % at 1, 26 XIU/ml [1] is reported as 82%, the Relative inhibition, % at 3, 15 XIU/ml [1] is reported as 42% and the Relative inhibition, % at 6, 3 XIU/ml [1] is reported as 19%. For the same substance, the Relative inhibition, % at 12, 6 XIU/ml [1] was 14%, the Relative inhibition, % at 1, 26 XIU/ml [2] was 120% and the Relative inhibition, % at 3, 15 XIU/ml [2] was 114%. It also gave a Relative inhibition, % at 6, 3 XIU/ml [2] of 126%, a Relative inhibition, % at 12, 6 XIU/ml [2] of 124% and a Relative inhibition, % at 1, 26 XIU/ml [3] of 83%. It also gave a Relative inhibition, % at 3, 15 XIU/ml [3] of 50%, a Relative inhibition, % at 6, 3 XIU/ml [3] of 27% and a Relative inhibition, % at 12, 6 XIU/ml [3] of 22%. The Relative inhibition, % at 1, 26 XIU/ml [4] was 99%, the Relative inhibition, % at 3, 15 XIU/ml [4] was 99% and the Relative inhibition, % at 6, 3 XIU/ml [4] was 93%. For the same substance, the Relative inhibition, % at 12, 6 XIU/ml [4] was 86%, the Relative inhibition, % at 1, 26 XIU/ml [5] was 80% and the Relative inhibition, % at 3, 15 XIU/ml [5] was 46%. It also gave a Relative inhibition, % at 6, 3 XIU/ml [5] of 30%, a Relative inhibition, % at 12, 6 XIU/ml [5] of 25% and a Relative inhibition, % at 1, 26 XIU/ml [6] of 80%. It also gave a Relative inhibition, % at 3, 15 XIU/ml [6] of 49%, a Relative inhibition, % at 6, 3 XIU/ml [6] of 28% and a Relative inhibition, % at 12, 6 XIU/ml [6] of 22%. For the same substance, the Relative inhibition, % at 1, 26 XIU/ml [7] was 87%, the Relative inhibition, % at 3, 15 XIU/ml [7] was 59% and the Relative inhibition, % at 6, 3 XIU/ml [7] was 40%. For the same substance, the Relative inhibition, % at 12, 6 XIU/ml [7] was 31%, the Relative inhibition, % at 1, 26 XIU/ml [8] was 79% and the Relative inhibition, % at 3, 15 XIU/ml [8] was 52%. The Relative inhibition, % at 6, 3 XIU/ml [8] was 30%, the Relative inhibition, % at 12, 6 XIU/ml [8] was 24% and the Relative inhibition, % at 1, 26 XIU/ml [9] was 96%. For the same substance, the Relative inhibition, % at 3, 15 XIU/ml [9] was 81%, the Relative inhibition, % at 6, 3 XIU/ml [9] was 63% and the Relative inhibition, % at 12, 6 XIU/ml [9] was 45%. For the same substance, the Relative inhibition, % at 1, 26 XIU/ml [10] was 103%, the Relative inhibition, % at 3, 15 XIU/ml [10] was 85% and the Relative inhibition, % at 6, 3 XIU/ml [10] was 63%. It also gave a Relative inhibition, % at 12, 6 XIU/ml [10] of 47%, a Relative inhibition, % at 1, 26 XIU/ml [11] of 104% and a Relative inhibition, % at 3, 15 XIU/ml [11] of 95%. It also gave a Relative inhibition, % at 6, 3 XIU/ml [11] of 85%, a Relative inhibition, % at 12, 6 XIU/ml [11] of 75% and a Relative inhibition, % at 1, 26 XIU/ml [12] of 76%. The Relative inhibition, % at 3, 15 XIU/ml [12] was 53%, the Relative inhibition, % at 6, 3 XIU/ml [12] was 34% and the Relative inhibition, % at 12, 6 XIU/ml [12] was 29%. It also gave a Relative inhibition, % at 1, 26 XIU/ml [13] of 84%, a Relative inhibition, % at 3, 15 XIU/ml [13] of 47% and a Relative inhibition, % at 6, 3 XIU/ml [13] of 24%. The Relative inhibition, % at 12, 6 XIU/ml [13] was 18%, the Relative inhibition, % at 1, 26 XIU/ml [14] was 101% and the Relative inhibition, % at 3, 15 XIU/ml [14] was 89%. The Relative inhibition, % at 6, 3 XIU/ml [14] was 72%, the Relative inhibition, % at 12, 6 XIU/ml [14] was 60% and the Relative inhibition, % at 1, 26 XIU/ml [15] was 73%. It also gave a Relative inhibition, % at 3, 15 XIU/ml [15] of 38%, a Relative inhibition, % at 6, 3 XIU/ml [15] of 24% and a Relative inhibition, % at 12, 6 XIU/ml [15] of 20%. For the same substance, the Relative inhibition, % at 1, 26 XIU/ml [16] was 101%, the Relative inhibition, % at 3, 15 XIU/ml [16] was 76% and the Relative inhibition, % at 6, 3 XIU/ml [16] was 49%. The Relative inhibition, % at 12, 6 XIU/ml [16] was 33%, the Relative inhibition, % at 1, 26 XIU/ml [17] was 83% and the Relative inhibition, % at 3, 15 XIU/ml [17] was 36%. It also gave a Relative inhibition, % at 6, 3 XIU/ml [17] of 20%, a Relative inhibition, % at 12, 6 XIU/ml [17] of 17% and a Relative inhibition, % at 1, 26 XIU/ml [18] of 87%. The Relative inhibition, % at 3, 15 XIU/ml [18] was 52%, the Relative inhibition, % at 6, 3 XIU/ml [18] was 32% and the Relative inhibition, % at 12, 6 XIU/ml [18] was 25%. For the same substance, the Relative inhibition, % at 1, 26 XIU/ml [19] was 110%, the Relative inhibition, % at 3, 15 XIU/ml [19] was 92% and the Relative inhibition, % at 6, 3 XIU/ml [19] was 73%. The Relative inhibition, % at 12, 6 XIU/ml [19] was 57%, the Relative inhibition, % at 1, 26 XIU/ml [20] was 74% and the Relative inhibition, % at 3, 15 XIU/ml [20] was 44%. It also gave a Relative inhibition, % at 6, 3 XIU/ml [20] of 26%, a Relative inhibition, % at 12, 6 XIU/ml [20] of 20% and a Relative inhibition, % at 1, 26 XIU/ml [21] of 88%. It also gave a Relative inhibition, % at 3, 15 XIU/ml [21] of 48%, a Relative inhibition, % at 6, 3 XIU/ml [21] of 31% and a Relative inhibition, % at 12, 6 XIU/ml [21] of 26%. It also gave a Relative inhibition, % at 1, 26 XIU/ml [22] of 96%, a Relative inhibition, % at 3, 15 XIU/ml [22] of 80% and a Relative inhibition, % at 6, 3 XIU/ml [22] of 62%. The Relative inhibition, % at 12, 6 XIU/ml [22] was 43%, the Relative inhibition, % at 1, 26 XIU/ml [23] was 78% and the Relative inhibition, % at 3, 15 XIU/ml [23] was 42%. The Relative inhibition, % at 6, 3 XIU/ml [23] was 25%, the Relative inhibition, % at 12, 6 XIU/ml [23] was 23% and the Relative inhibition, % at 1, 26 XIU/ml [24] was 94%. It also gave a Relative inhibition, % at 3, 15 XIU/ml [24] of 67%, a Relative inhibition, % at 6, 3 XIU/ml [24] of 40% and a Relative inhibition, % at 12, 6 XIU/ml [24] of 26%. The Relative inhibition, % at 1, 26 XIU/ml [25] was 45%, the Relative inhibition, % at 3, 15 XIU/ml [25] was 24% and the Relative inhibition, % at 6, 3 XIU/ml [25] was 17%. For the same substance, the Relative inhibition, % at 12, 6 XIU/ml [25] was 14%, the Relative inhibition, % at 1, 26 XIU/ml [26] was 104% and the Relative inhibition, % at 3, 15 XIU/ml [26] was 106%. For the same substance, the Relative inhibition, % at 6, 3 XIU/ml [26] was 103%, the Relative inhibition, % at 12, 6 XIU/ml [26] was 104% and the Relative inhibition, % at 1, 26 XIU/ml [27] was 104%. For the same substance, the Relative inhibition, % at 3, 15 XIU/ml [27] was 95%, the Relative inhibition, % at 6, 3 XIU/ml [27] was 87% and the Relative inhibition, % at 12, 6 XIU/ml [27] was 84%.

Reference: patent publication US20030180895A1
